Reference: PMC6123778, “Structural rearrangements in the C-terminal domain homolog of Orange Carotenoid Protein are crucial for carotenoid transfer” (Communications Biology, 2018)

Key:
[1] = target: T1, AnaCTDH (CTDH, C-terminal domain homolog of OCP, clade 2) (Nostoc sp. PCC 7120 = FACHB-418, UniProt A0ACD6B996, C103F); test: absorbance spectra after uptake from canthaxanthin-containing E. coli membranes; assay type: binding; conditions: 12 µM apo-dimer, membranes with 48 µM canthaxanthin, 33 °C, 1 h, darkness
T1 construct: gene all4940; C-terminal His-tag (plasmid pCDF-CTDHAna-C103F), expressed in E. coli; dimer about 34 kDa; the wild type was crystallised in apo form

[2] = target: T2, AnaCTDH (CTDH, C-terminal domain homolog of OCP, clade 2) (Nostoc sp. PCC 7120 = FACHB-418, UniProt A0ACD6B996, C103F/DEL126-136); test: as above; assay type: binding; conditions: 12 µM apo-dimer, membranes with 48 µM canthaxanthin, 33 °C, 1 h, darkness; C-terminal tail deleted
T2 construct: gene all4940; C-terminal His-tag (plasmid pCDF-CTDHAna-C103F), expressed in E. coli; dimer about 34 kDa; the wild type was crystallised in apo form

[3] = target: Anabaena (Nostoc) PCC 7120 apo-CTDH (carotenoid-free C-terminal domain homolog of Orange Carotenoid Protein) (Anabaena (Nostoc) PCC 7120); test: SEC; apo-AnaCTDH treated with 2 M urea overnight, preparative column, 40 mM Tris-HCl pH 8 with 2 M urea
[4] = target: Anabaena (Nostoc) PCC 7120 apo-CTDH (carotenoid-free C-terminal domain homolog of Orange Carotenoid Protein) (Anabaena (Nostoc) PCC 7120); test: native gel or EMSA; purified apo-AnaCTDH on 15% native polyacrylamide gel, pH 8 (25 mM Tris-HCl, 192 mM glycine), non-reducing
[5] = target: the molecule itself; test: SAXS; batch mode, 270 µM per monomer, 20 mM Tris-HCl pH 7.6, 150 mM NaCl, 0.1 mM EDTA, 2 mM dithiothreitol, 3% glycerol

T2 sequence (A0ACD6B996 entry or part of it C103F/DEL126-136): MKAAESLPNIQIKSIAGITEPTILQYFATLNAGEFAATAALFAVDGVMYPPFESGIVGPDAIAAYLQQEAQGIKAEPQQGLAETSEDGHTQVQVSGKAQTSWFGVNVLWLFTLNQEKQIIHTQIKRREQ
T1 sequence (A0ACD6B996 entry or part of it C103F): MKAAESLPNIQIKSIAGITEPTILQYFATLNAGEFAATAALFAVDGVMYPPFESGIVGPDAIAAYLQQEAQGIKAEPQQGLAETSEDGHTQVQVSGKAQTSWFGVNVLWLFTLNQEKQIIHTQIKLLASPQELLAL

Molecule: CC1=C(/C=C/C(C)=C/C=C/C(C)=C/C=C/C=C(C)/C=C/C=C(C)/C=C/C2=C(C)C(=O)CCC2(C)C)C(C)(C)CCC1=O [canthaxanthin]
- % holo-protein formed [1]: 100%
- % holo-protein formed [2]: 20(±5) %

Molecule: Anabaena (Nostoc) PCC 7120 apo-CTDH (carotenoid-free C-terminal domain homolog of Orange Carotenoid Protein) (natural protein)
- stoichiometry N [3]: 2
- stoichiometry N [4]: 2

B1: Apo-CTD from Synechocystis OCP (residues 165-317) (domain or fragment, Synechocystis 6803, UniProt P74102 165-317, looked up)
chain: AGKDGKRIAEPVVPPQDTASRTKVSIEGVTNATVLNYMDNLNANDFDTLIELFTSDGALQPPFQRPIVGKENVLRFFREECQNLKLIPERGVTEPAEDGFTQIKVTGKVQTPWFGGNVGMNIAWRFLLNPEGKIFFVAIDLLASPKELLNFAR
notes: C-terminal domain of the Orange Carotenoid Protein of Synechocystis 6803, residues 165-317 (of 317); 18.7 kDa construct with an uncleavable N-terminal hexahistidine tag; carotenoid-free; The SAXS modelling counts 23 flexible N-terminal residues (tag and linker included) and 12 C-terminal ones; also called apo-OCP-CTD; CTD-OCP; not shown: His6, N-terminal, kept
- stoichiometry N [5]: 2
